Laboratory results reported in patent US20200024337A1 (H LUNDBECK A S, published 2020).
Substitutions are numbered along the chain they refer to. Like-named read-outs stand apart in the source and are kept apart here.

Tests used:
[1] = target: T1, …; test: Pepscan ELISA on a synthesized peptide array (peroxidase conjugate, ABTS, CCD read-out, scale 0 to 3000) [upper panel]
T1 construct: x-axis label of the 4th bar, upper panel; also called alpha-synuclein 20-mer 121-140
Description: (§1) The binding of antibody to each of the synthesized 20 mer peptides was tested in a Pepscan based ELISA. The linear peptide array covering the entire coding sequence of alpha-synuclein, as well as all peptides with oxidized methionines or nitrosylated tyrosines, were incubated with primary antibody solution (overnight at 4° C.). After washing, the peptide arrays were incubated with a 1/1000 dilution of an antibody peroxidase conjugate (SBA,cat.nr.2010-05) for one hour at 25° C. After washing, the peroxidase substrate 2,2′-azino-di-3-ethylbenzthiazoline sulfonate (ABTS) and 2 μl/ml of 3 percent H₂O₂ were added. After one hour, the color development was measured. The color development was quantified with a charge coupled device (CCD)—camera and an image processing system. […] The results were quantified and stored into the Peplab database. Occasionally a well contains an air-bubble resulting in a false-positive value, the cards are manually inspected and any values caused by an air-bubble are scored as 0.

[2] = target: T2, …; test: as above
T2 construct: x-axis label of the 3rd bar, upper panel
Description: as §1

[3] = target: T3, …; test: as above
T3 construct: x-axis label of the 2nd bar, upper panel
Description: as §1

alpha-synuclein [4] = target: T4, alpha-synuclein (human, UniProt P37840 1-140); test: SPR (Biacore 3000), IgG captured by anti-human IgG on CM5 chip, synuclein as analyte
alpha-synuclein [5] = target: T4, alpha-synuclein; test: as above; remark: listed apart in the source
alpha-synuclein [6] = target: T4, alpha-synuclein; test: SPR (Biacore 3000), synuclein ligand format

B1: mouse 2E6 (antibody, V domains shown)
VH: QVQLQQPGAELVKPGASVKLSCTASGYTFTSYWMHWMKQRPGRGLEWIGRIDPNSGTTKYNVNFKTKATLTVDKPSSTAYMHLSSLTSEDSAVYYCARLGHYGNLYAMDYWGQGTSVT
VL: QIVLTQSPAIMSASPGEKVTMTCSASSSVSYMHWYQQKSGTSPKRWIYDTSKLASGVPTRFSGSGSGTSYSLTISSMDTEDAATYYCQQWSSNPPTFGAGTKLELK
notes: also called m2E6
B1: binds [1]; binds [2]; binds [3].

B2: 2E6-HLD-1 (antibody, V domains shown)
VH: QVQLVQSGAEVKKPGASVKVSCKASGYTFTSYWMHWMRQAPGQGLEWIGRIDPNSGTTKYNVNFKTRATLTVDKSTSTAYMELSSLRSEDTAVYYCARLGHYGNLYAMDYWGQGTLVT
VL: EIVLTQSPATLSLSPGERATLSCSASSSVSYMHWYQQKPGQAPRRWIYDTSKLASGVPARFSGSGSGTDYTLTISSLEPEDFAVYYCQQWSSNPPTFGQGTKLEIKR
notes: Humanized 2E6; also called h2E6-HLD-1; H2E6-HLD-1
B2 was tested, and the KD improvement (alpha-synuclein [4]) was 2.5 fold (Ch2E6 = 1), the KD improvement (alpha-synuclein [5]) was 2.5 fold (Ch2E6 = 1) and the KD improvement (alpha-synuclein [6]) was 2 fold (Ch2E6 = 1).

B3: 2E6-HLD-2 (antibody, V domains shown)
VH: B2 VH with M37V
VL: B2 VL
notes: Humanized 2E6; also called h2E6-HLD-2; H2E6-HLD-2
B3 was tested, and the KD improvement (alpha-synuclein [6]) was 1 fold (Ch2E6 = 1).

B4: 2E6-HLD-3 (antibody, V domains shown)
VH: B2 VH with A68V
VL: B2 VL
notes: Humanized 2E6; also called h2E6-HLD-3; H2E6-HLD-3
With B4 the KD improvement (alpha-synuclein [6]) was 1 fold (Ch2E6 = 1) and the Kd (alpha-synuclein [6]) was 5.32 nM.

B5: 7A10 (antibody, V domains shown)
VH: B2 VH with M108K
VL: EIVLTQSPATLSLSPGERATLSCSASSSVSYIHWYQQKPGQAPRRWIYDTSKLASGVPARFSGSGSGTDYTLTISSLEPEDFAVYYCQQWSSNPPTFGQGTKLEIK
notes: also called 2E6_7A10; 2E6-HLD1-7A10
For B5, the KD improvement (alpha-synuclein [5]) was 10.3 fold (Ch2E6 = 1), the Ka (alpha-synuclein [5]) was 1.81e+08 M⁻¹ and the Kd (alpha-synuclein [5]) was 5.52 nM. The koff (alpha-synuclein [5]) was 0.000285 s⁻¹ and the kon (alpha-synuclein [5]) was 51700 M⁻¹ s⁻¹.

B6: 7C4 (antibody, V domains shown)
VH: B2 VH with S31R, L45P
VL: B5 VL with Y31F, I32M
B6 was tested, and the KD improvement (alpha-synuclein [5]) was 7 fold (Ch2E6 = 1).

B7: 9C12 (antibody, V domains shown)
VH: B2 VH with F64I
VL: B5 VL with I32M, W46L
With B7 the KD improvement (alpha-synuclein [5]) was 10 fold (Ch2E6 = 1).

B8: HDL1-3 (antibody, V domains shown)
VH: B2 VH with F64I
VL: B5 VL
notes: also called combination 3: 7A10 light chain+9C12 heavy chain
In the case of B8, the KD improvement (alpha-synuclein [4]) is reported as 45 fold (Ch2E6 = 1), the Ka (alpha-synuclein [4]) is reported as 7.94e+08 M⁻¹ and the Kd (alpha-synuclein [4]) is reported as 1.26 nM. It also gave a koff (alpha-synuclein [4]) of 0.000126 s⁻¹ and a kon (alpha-synuclein [4]) of 99900 M⁻¹ s⁻¹.

B9: chimeric 2E6 (antibody, V domains shown)
VH: B1 VH
VL: B1 VL
notes: also called ch2E6; Ch2E6
For B9, the KD improvement (alpha-synuclein [4]) was 1 fold (Ch2E6 = 1), the KD improvement (alpha-synuclein [5]) was 1 fold (Ch2E6 = 1) and the KD improvement (alpha-synuclein [6]) was 1 fold (Ch2E6 = 1).

B10: 8D9 (antibody, V domains shown)
VH: B2 VH with M108K
VL: B5 VL
B10 was tested, and the KD improvement (alpha-synuclein [5]) was 8.7 fold (Ch2E6 = 1).
